Source: PMC10732415, “Bacteriophage-encoded 24B_1 molecule resembles herpesviral microRNAs and plays a crucial role in the development of both the virus and its host”

Molecular target: Hfq (Escherichia coli, UniProt P0A6X3 1-102)
Assay: EMSA; 1 mM Mg2+; Hfq up to 100 nM
Settings: protein: recombinant; chain copies: 6; label: 32P; predicted 4-bp helix

Chain of Hfq (P0A6X3 whole entry): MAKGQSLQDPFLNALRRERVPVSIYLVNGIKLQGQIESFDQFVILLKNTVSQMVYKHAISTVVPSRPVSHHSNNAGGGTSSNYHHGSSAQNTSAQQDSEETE

Binder: UAACGUUAAGUUGACUCGGG (ssRNA) [mature 24B_1 RNA, 20 nt]
- binding result: no binding
